This is an account of results in PMC5476288 (PLoS Pathogens, 2017).

The experiment concerns the target T1, Flag-IRF3 (human, UniProt Q14653 1-427).
T1 construct: not shown: Flag, N-terminal, kept
T1 sequence (looked up): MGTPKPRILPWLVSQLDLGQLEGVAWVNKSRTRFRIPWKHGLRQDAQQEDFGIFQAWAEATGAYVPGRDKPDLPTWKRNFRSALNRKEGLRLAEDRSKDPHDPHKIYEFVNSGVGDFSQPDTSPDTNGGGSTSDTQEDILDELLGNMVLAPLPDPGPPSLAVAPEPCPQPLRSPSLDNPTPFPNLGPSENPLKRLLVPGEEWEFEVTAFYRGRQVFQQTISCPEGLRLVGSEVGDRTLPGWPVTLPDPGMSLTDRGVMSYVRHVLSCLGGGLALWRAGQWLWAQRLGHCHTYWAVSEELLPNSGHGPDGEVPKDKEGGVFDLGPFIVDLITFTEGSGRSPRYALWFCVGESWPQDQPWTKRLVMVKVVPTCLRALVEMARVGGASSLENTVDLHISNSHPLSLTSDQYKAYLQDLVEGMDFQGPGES
Briefly: pull-down; lysates of 293T cells with ectopic Flag-TBK1 or Flag-IRF3 incubated with GST or the GST-ERRα fusion protein. Conditions: one partner purified.

B1: GST-ERRα fusion protein (natural protein, UniProt P11474 1-423, looked up)
chain: MSSQVVGIEPLYIKAEPASPDSPKGSSETETEPPVALAPGPAPTRCLPGHKEEEDGEGAGPGEQGGGKLVLSSLPKRLCLVCGDVASGYHYGVASCEACKAFFKRTIQGSIEYSCPASNECEITKRRRKACQACRFTKCLRVGMLKEGVRLDRVRGGRQKYKRRPEVDPLPFPGPFPAGPLAVAGGPRKTAAPVNALVSHLLVVEPEKLYAMPDPAGPDGHLPAVATLCDLFDREIVVTISWAKSIPGFSSLSLSDQMSVLQSVWMEVLVLGVAQRSLPLQDELAFAEDLVLDEEGARAAGLGELGAALLQLVRRLQALRLEREEYVLLKALALANSDSVHIEDAEAVEQLREALHEALLEYEAGRAGPGGGAERRRAGRLLLTLPLLRQTAGKVLAHFYGVKLEGKVPMHKLFLEMLEAMMD
notes: also called estrogen-related receptor α
Turning to B1, the binding result is recorded as “binds”.
